This passage reports EC50 results from patent US20220242957A1 (MARENGO THERAPEUTICS, published 2022).

Test [1] has as its target T1, mouse CCR2 and mouse CSF1R, both expressed on the same ExpiCHO cells (mouse, UniProt P51683 1-373; P09581 20-977).
T1 construct: whole, on cells; Two separate membrane proteins on one cell, not a complex; also called CCR2 and CSF1R double positive cells; both mCCR2 and mCSF1R
The experiment in a line: flow cytometry on ExpiCHO cells transiently transfected with both mouse CCR2 and mouse CSF1R; goat anti-mouse Fc biotin and streptavidin-PE. The method, then:
(§1) ExpiCHO cells were transiently transfected with mouse CCR2, mouse CSF1R, or both mouse CCR2 and CSF1R, according to the manufacturer's instructions. In brief, the transfections were performed with ExpiCHO cells at a cell density of 5.6-6.3×10⁶ cells/mL and at least 95% viability. For each transfection, 25 μg of DNA was diluted with 1 mL of OptiPro SFM (Gibco 12309050) and filtered using spin-X centrifuge tube filters (Corning 8160). A solution of 920 µL of OptiPro and 80 μL of expifectamine was added to the filtered DNA, incubated for 1 minute at room temperature, and then added to the cells. On day 1 of the transfection, the cells were enhanced using 150 μL of ExpiCHO enhancer.
(§2) On day 2 of the transfection, the cells were washed with PBS containing 1% BSA (Sigma) and used to set 96-well V-bottom plates (Biotix AP-0350-9CVS) with 100,000 cells/well. UniTI-01 was added to the cells in serial dilutions and incubated for 1 hour at 4° C. The plates were washed twice with PBS containing 1% BSA. […] The plates were read on a CytoFLEX S (Beckman Coulter). Data were calculated as the median fluorescence intensity of the PE-positive population vs. the median fluorescence intensity of the PE-negative population. The data was normalized for the percent of total median fluorescence intensity.
For orientation: A flow cytometer gives signals particle by particle.

For the next test, the target named is T2, mouse CSF1R (mouse, UniProt P09581 20-977).
T2 construct: whole, on cells; also called mCSF1R
T2 sequence (looked up): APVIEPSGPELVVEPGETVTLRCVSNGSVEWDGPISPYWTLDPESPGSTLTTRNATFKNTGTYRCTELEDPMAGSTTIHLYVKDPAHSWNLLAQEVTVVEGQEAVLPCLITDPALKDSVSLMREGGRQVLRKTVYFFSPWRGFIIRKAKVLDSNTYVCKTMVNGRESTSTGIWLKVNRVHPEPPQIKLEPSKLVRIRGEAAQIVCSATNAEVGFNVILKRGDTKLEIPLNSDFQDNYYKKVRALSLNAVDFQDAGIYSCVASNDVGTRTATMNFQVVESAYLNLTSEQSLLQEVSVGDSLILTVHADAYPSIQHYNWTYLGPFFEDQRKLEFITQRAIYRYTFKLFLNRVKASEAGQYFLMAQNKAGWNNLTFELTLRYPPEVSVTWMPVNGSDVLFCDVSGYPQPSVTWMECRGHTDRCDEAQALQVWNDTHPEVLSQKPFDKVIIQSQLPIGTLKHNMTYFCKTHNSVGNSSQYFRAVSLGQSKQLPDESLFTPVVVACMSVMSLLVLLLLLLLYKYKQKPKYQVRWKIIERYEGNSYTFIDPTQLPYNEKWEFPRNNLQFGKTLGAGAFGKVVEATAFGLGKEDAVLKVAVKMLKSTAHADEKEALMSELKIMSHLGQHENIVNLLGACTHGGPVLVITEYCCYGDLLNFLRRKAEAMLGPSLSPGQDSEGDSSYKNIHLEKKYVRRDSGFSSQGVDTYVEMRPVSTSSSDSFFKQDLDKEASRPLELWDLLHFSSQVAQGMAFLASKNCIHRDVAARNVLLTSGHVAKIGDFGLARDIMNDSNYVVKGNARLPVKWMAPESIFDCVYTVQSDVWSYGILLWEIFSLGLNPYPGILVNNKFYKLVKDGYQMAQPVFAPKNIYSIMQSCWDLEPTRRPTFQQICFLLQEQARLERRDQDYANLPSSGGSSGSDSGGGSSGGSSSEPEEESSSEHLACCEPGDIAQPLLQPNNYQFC
The experiment in a line: flow cytometry on ExpiCHO cells transiently transfected with mouse CSF1R; goat anti-mouse Fc biotin and streptavidin-PE. The method, then:
as §1, §2

A further test has as its target T3, mouse CCR2 (mouse, UniProt P51683 1-373).
T3 construct: whole, on cells; also called mCCR2
The experiment in a line: flow cytometry on ExpiCHO cells transiently transfected with mouse CCR2; goat anti-mouse Fc biotin and streptavidin-PE. The method, then: as §1, §2

T3 sequence (P51683 whole entry): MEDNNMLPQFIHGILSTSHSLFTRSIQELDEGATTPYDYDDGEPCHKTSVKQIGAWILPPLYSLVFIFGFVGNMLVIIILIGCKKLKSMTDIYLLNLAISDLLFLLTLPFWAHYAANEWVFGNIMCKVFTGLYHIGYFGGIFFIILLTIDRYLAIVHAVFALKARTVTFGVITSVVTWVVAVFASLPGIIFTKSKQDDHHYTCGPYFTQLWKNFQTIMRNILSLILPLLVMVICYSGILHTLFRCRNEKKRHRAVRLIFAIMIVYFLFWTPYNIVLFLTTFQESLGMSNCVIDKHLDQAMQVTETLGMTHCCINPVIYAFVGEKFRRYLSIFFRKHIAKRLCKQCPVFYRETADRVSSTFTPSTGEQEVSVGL
T1 sequence (P51683 whole entry, one chain of several): as the sequence (P51683 whole entry) above

B1: UniTI-01 (multispecific molecule #1, anti-CCR2/anti-CSF1R bispecific antibody) (bispecific antibody)
heavy 1: QVQLQESGPGLVQPSQTLSLTCTVSGFSLTDFSVHWVRQPPGKGLEWMGRIRSEGNTDYNSALKSRLSISRDTSKSQVFLKMNSLQTEDTAIYFCTRGDILGFGYWGQGVMVTVSSAQTTAPSVYPLAPGCGDTTSSTVTLGCLVKGYFPEPVTVTWNSGALSSDVHTFPAVLQSGLYTLTSSVTSSTWPSQTVTCNVAHPASSTKVDKKVERRTIKPCPPCKCPAPNLLGGPSVFIFPPKIKDVLMISLSPIVTCVVVDVSEDDPDVQISWFVNNVEVHTAQTQTHREDYNSTLRVVSALPIQHQDWMSGKEFKCKVNNKDLPAPIERTISKPKGSVRAPQVYVLPPCEEEMTKKQVTLWCMVTDFMPEDIYVEWTNNGKTELNYKNTEPVLDSDGSYFMYSKLRVEKKNWVERNSYSCSVVHEGLHNHHTTKSFSRTPGK
light 1: DIVMTQSPLSVSVTPGESASISCRSSKSLLHFKGITFVYWYLQKPGQSPQLLIFRMSSLASGVPDRFSGSGSETDFTLKISRVEAEDVGTYYCGQLLENPYTFGAGTKLELKRADAAPTVSIFPPSMEQLTSGGATVVCFVNNFYPRDISVKWKIDGSEQRDGVLDSVTDQDSKDSTYSMSSTLSLTKVEYERHNLYTCEVVHKTSSSPVVKSFNRNEC
heavy 2: QVQLQQSGAELVKPGSSVKISCKASGYTFTSNFMHWIKQQPGNGLEWIGWIYPGDGDTEYNQKFNGKATLTADKSSSTAYMQLSSLTSEDSAVYFCAVNYGGYVLDAWGQGASVTVSSAETTAPSVYPLAPGTALKSNSMVTLGCLVKGYFPEPVTVTWNSGALSSGVHTFPAVLQSGLYTLTSSVTVPSSTWSSQAVTCNVAHPASSTKVDKKIVPRECNTIKPCPPCKCPAPNLLGGPSVFIFPPKIKDVLMISLSPIVTCVVVDVSEDDPDVQISWFVNNVEVHTAQTQTHREDYNSTLRVVSALPIQHQDWMSGKEFKCKVNNKDLPAPIERTISKPKGSVRAPQVCVLPPPEEEMTKKQVTLSCAVTDFMPEDIYVEWTNNGKTELNYKNTEPVLDSDGSYFMVSKLRVEKKNWVERNSYSCSVVHEGLHNHHTTKSFSRTPGK
light 2: EIVLTQSPTTMAASPGEKVTITCRASSSTNYMSWYQQKSGASPKPWIYETSKLASGVPDRFSGSGSGTSYSFTISSMETEDAATYYCHQWSSTPLTFGSGTKLEIKRADAAPTVSIFPPSMEQLTSGGATVVCFVNNFYPRDISVKWKIDGSEQRDGVLDSVTDQDSKDSTYSMSSTLSLTKVEYERHNLYTCEVVHKTSSSPVVKSFNRNEC
notes: one arm for each target; also called mUniTI-01
By EC50 is commonly meant the midpoint of the concentration-response curve. Read a high EC50 as weaker potency. As for B1, the EC50 was found to be 0.4 nM in test [1], 1 nM with mouse CSF1R and 15 nM in the test with mouse CCR2.
